Earlier results as cited in article PMC3164694.

Legend:
[1] = target: TIMP-2 (Homo sapiens) (UniProt P16035)
[2] = target: MMP-2 (Homo sapiens) (UniProt P08253)
Chain of MMP-2 (Homo sapiens) (P08253 110-660): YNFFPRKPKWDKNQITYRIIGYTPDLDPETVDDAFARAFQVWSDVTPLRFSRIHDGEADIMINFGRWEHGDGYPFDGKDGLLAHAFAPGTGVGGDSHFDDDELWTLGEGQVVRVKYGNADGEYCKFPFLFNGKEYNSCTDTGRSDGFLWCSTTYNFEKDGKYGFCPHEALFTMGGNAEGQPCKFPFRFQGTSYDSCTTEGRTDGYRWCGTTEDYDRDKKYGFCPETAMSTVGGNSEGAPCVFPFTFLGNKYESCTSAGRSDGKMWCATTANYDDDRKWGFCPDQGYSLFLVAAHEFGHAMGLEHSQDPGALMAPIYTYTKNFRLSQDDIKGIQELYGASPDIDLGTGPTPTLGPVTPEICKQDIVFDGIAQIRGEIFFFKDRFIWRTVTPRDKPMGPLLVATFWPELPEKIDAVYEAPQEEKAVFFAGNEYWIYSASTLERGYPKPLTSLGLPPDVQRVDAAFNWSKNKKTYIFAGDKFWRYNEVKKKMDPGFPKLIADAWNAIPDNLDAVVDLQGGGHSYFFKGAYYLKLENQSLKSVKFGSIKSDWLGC

Substance	Kd [1] [nM]	Kd [2] [nM]
MT1-MMP (from UniProt P50281)	2.54	–
MT1-MMP/TIMP-2 complex (from UniProt P50281)	–	0.56
